Assay [1] deals with T1, human CD73 (ecto-5'-nucleotidase) expressed at the cell surface (human, UniProt P21589 27-549).
T1 construct: Used for huCD73-expressing recombinant cell lines, MDA-MB-231 cells (endogenous CD73), HEK-293T cells with wild type CD73, and primary T and B cells; also called huCD73; wild type CD73
T1 sequence: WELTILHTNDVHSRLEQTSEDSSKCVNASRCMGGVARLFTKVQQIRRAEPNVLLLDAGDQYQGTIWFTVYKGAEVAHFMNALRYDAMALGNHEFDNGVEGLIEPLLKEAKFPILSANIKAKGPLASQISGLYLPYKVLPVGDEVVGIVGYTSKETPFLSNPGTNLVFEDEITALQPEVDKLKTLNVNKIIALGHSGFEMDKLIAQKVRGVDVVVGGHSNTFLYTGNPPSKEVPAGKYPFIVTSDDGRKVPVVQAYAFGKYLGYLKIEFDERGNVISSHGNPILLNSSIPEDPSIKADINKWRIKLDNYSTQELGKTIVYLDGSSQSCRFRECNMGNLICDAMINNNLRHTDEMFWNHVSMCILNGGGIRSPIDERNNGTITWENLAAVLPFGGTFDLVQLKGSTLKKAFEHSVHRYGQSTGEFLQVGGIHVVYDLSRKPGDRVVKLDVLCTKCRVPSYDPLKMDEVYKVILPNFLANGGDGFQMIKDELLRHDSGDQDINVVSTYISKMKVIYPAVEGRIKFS
The assay is described as follows: flow cytometry titration on MDA-MB-231 cells, endogenous CD73. How it is done:
10⁵ cells resuspended in PBS/0.2% BSA/0.02% NaN3 (named “staining buffer”) are distributed into round bottom 96W-microplates. Dose-range of anti-CD73 antibodies was added to the plates and cells are incubated for 45 min at 4° C. Cells were washed three times in staining buffer by spinning plates at 400 g for 3 min at 4° C. PE-coupled goat anti-mouse or goat anti-human IgG Fc fragment secondary antibodies (Beckman Coulter) diluted in staining buffer were added to the cells and plates are incubated for 30 additional minutes at 4° C. Cells were washed three times as described above and analyzed on an Accury C6 flow cytometer equipped with an HTFC plate reader.
Median of fluorescence vs. antibodies concentration was plotted on graphs and EC50 is calculated using GraphPad Prism program.
(A flow cytometer gives signals particle by particle.)

For another assay, the target named is T2, human CD73 mutant 2 (human, UniProt P21589 27-549).
T2 construct: Transfected in HEK-293T cells; The cell prints A1071, read as A107I
T2 chain: T1 sequence with Q44S, R47A, A48E, A81I, R83G
The assay is described as follows: flow cytometry titration on HEK-293T cells transfected with CD73 mutant 2. How it is done:
(§1) Anti-CD73 antibodies are tested for their binding to each mutant by flow cytometry. A first experiment is performed to determine antibodies that lose their binding to one or several mutants at one concentration. To confirm a loss of binding, titration of antibodies is done on antibodies for which binding seemed to be affected by the CD73 mutations (1-0.1-0.01-0.001 μg/ml).

The target of the next assay is T3, human CD73 mutant 4 (human, UniProt P21589 27-549).
T3 construct: Transfected in HEK-293T cells
T3 chain: T1 sequence with K119A, K121A, S126H, S129A, Y135S, E177A, K180A
The assay is described as follows: flow cytometry titration on HEK-293T cells transfected with CD73 mutant 4. The method, then: as §1

Numbering of substitutions follows the chain as printed.

B1: antibody 7H10 (antibody, human IgG1, V domains shown)
VH: DVQLQESGPGLVKPSQSLSLTCTVTGYSITSDYAWNWIRQFPGNKLEWMGYIIYSGSTSYNPSLNSRISITRDTSKNQFFLQLNSVTTEDTATYYCAREAYLYFDYWGQGTTLTVSS
VL: DIQMTQTTSSLSASLGDRVTISCRASQDINNYLNWYQQKPDGTVKLLIYYTSRLHSGVPSRFSGSGSGTDYSLTISNLEREDVATYFCQQGNTLPWTFGGGTKLEIK
For B1, in assay [1], the EC50 (usually the midpoint of the concentration-response curve) was determined as 0.054 µg/mL and the “fold lower EC50 than AD2” value was approximately 8 fold. In addition, in the assay with human CD73 mutant 2, the binding result is “no binding (tested: 10 µg/ml)”. For the same molecule, the concentration for a half-maximal effect (EC50 (read off the curve)) (as a rule, the concentration at which the effect is half-maximal) in the assay with human CD73 mutant 4 was approximately 0.2 µg/mL.

(Values after patent publication US20190225703A1 (INNATE PHARMA, published 2019).)
